B1: PAMPΔ312-369 (other, not shown: small tags and cut ends)
chain: NSVERKIYIPLNKTAPCVRLLNATHQIGCQSSISGDTGVIHVVEKEEDLQWVLTDGPNPPYMVLLESKHFTRDLMEKLKGRTSRIAGLAVSLTKPSPASGFSPSVQCPNDGFGVYSNSYGPEFAHCREIQWNSLGNGLAYEDFSFPIFLLEDENETKVIKQCYQDHNLSQNGSAPTFPLCAMQLFSHMHAVISTATCMRRSSIQSTFSINPEIVCDPLSDYNVWSMLKPINTTGTLKPDDRVVVAATRLDSRSFFWNVAPGAESAVASFVTQLAAAEALRTSLELWMHTDPVSQKNESVRNQVEDLLATLEKSGAGVPAVILRRPNQSQPLPPSSLQRFLRARNISGVVLADHSGAFHNKYYQSIYDTAENINVSYPEWLSPEEDLNFVTDTAKALADVATVLGRALYELAGGTNFSDTVQADPQTVTRLLYGFLIKANNSWFQSILRQDLRSYLGDGPLQHYIAVSSPTNTTYVVQYALANLTGTVVNLTREQCQDPSKVPSENKDLYEYSWVQGPLHSNETDRLPRCVRSTARLARALSPAFELSQWSSTEYSTWTESRWKDIRARIFLIASKELELITLTVGFGILIFSLIVTYCINAKADVLFIAPREPGAVSY
B2: PAMPΔ312-340 (other, not shown: small tags and cut ends)
chain: NSVERKIYIPLNKTAPCVRLLNATHQIGCQSSISGDTGVIHVVEKEEDLQWVLTDGPNPPYMVLLESKHFTRDLMEKLKGRTSRIAGLAVSLTKPSPASGFSPSVQCPNDGFGVYSNSYGPEFAHCREIQWNSLGNGLAYEDFSFPIFLLEDENETKVIKQCYQDHNLSQNGSAPTFPLCAMQLFSHMHAVISTATCMRRSSIQSTFSINPEIVCDPLSDYNVWSMLKPINTTGTLKPDDRVVVAATRLDSRSFFWNVAPGAESAVASFVTQLAAAEASRMVYDMEKGKFPVQLENVDSFVELGQVALRTSLELWMHTDPVSQKNESVRNQVEDLLATLEKSGAGVPAVILRRPNQSQPLPPSSLQRFLRARNISGVVLADHSGAFHNKYYQSIYDTAENINVSYPEWLSPEEDLNFVTDTAKALADVATVLGRALYELAGGTNFSDTVQADPQTVTRLLYGFLIKANNSWFQSILRQDLRSYLGDGPLQHYIAVSSPTNTTYVVQYALANLTGTVVNLTREQCQDPSKVPSENKDLYEYSWVQGPLHSNETDRLPRCVRSTARLARALSPAFELSQWSSTEYSTWTESRWKDIRARIFLIASKELELITLTVGFGILIFSLIVTYCINAKADVLFIAPREPGAVSY
B3: calnexin (other, UniProt P27824 21-592, looked up)
chain: HDGHDDDVIDIEDDLDDVIEEVEDSKPDTTAPPSSPKVTYKAPVPTGEVYFADSFDRGTLSGWILSKAKKDDTDDEIAKYDGKWEVEEMKESKLPGDKGLVLMSRAKHHAISAKLNKPFLFDTKPLIVQYEVNFQNGIECGGAYVKLLSKTPELNLDQFHDKTPYTIMFGPDKCGEDYKLHFIFRHKNPKTGIYEEKHAKRPDADLKTYFTDKKTHLYTLILNPDNSFEILVDQSVVNSGNLLNDMTPPVNPSREIEDPEDRKPEDWDERPKIPDPEAVKPDDWDEDAPAKIPDEEATKPEGWLDDEPEYVPDPDAEKPEDWDEDMDGEWEAPQIANPRCESAPGCGVWQRPVIDNPNYKGKWKPPMIDNPSYQGIWKPRKIPNPDFFEDLEPFRMTPFSAIGLELWSMTSDIFFDNFIICADRRIVDDWANDGWGLKKAADGAAEPGVVGQMIEAAEERPWLWVVYILTVALPVFLVILFCCSGKKQTSGMEYKKTDAPQPDVKEEEEEKEEEKDKGDEEEEGEEKLEEKQKSDAEEDGGTVSQEEEDRKPKAEEDEILNRSPRNRKPRRE
notes: whole, on cells; The only named member of 'other ER-resident proteins'; also called other ER-resident proteins (e.g., calnexin)

Experiments:
[1] = biological target: wild type human presenilin-1 (PS1) (human, UniProt P49768 1-467); assay: cell-based or functional assay
[2] = biological target: T1, V5-tagged human Presenilin Associated Membrane Protein (PAMP) (human, UniProt Q92542 34-709); assay: immunoprecipitation from cell lysates, Western blot
T1 construct: Expressed by transfection in HEK293 cells or murine embryonic fibroblasts and tested by co-immunoprecipitation from detergent lysates; Glycosylated (~110 kDa, ~80 kDa after Endo H); also called V5-PAMP; V5-tagged-PAMP

Binder	Aβ42/Aβ40 Ratio [1]	binding result [2]
B1	0.09 normalized to mock transfection	–
B2	0.59 normalized to mock transfection	–
B3	–	no binding
